Assay results reported in US20090029421, “Recombinase polymerase amplification” (published 2009).

Columns and labels:
Assay in all cases: competition; excess ssDNA oligo titrates gp32 off probe
Details in all cases: tags: C-terminal His6
gp32 (Rb69) = target: T1, gp32 (Rb69) (Enterobacteria phage RB69)
T1 chain: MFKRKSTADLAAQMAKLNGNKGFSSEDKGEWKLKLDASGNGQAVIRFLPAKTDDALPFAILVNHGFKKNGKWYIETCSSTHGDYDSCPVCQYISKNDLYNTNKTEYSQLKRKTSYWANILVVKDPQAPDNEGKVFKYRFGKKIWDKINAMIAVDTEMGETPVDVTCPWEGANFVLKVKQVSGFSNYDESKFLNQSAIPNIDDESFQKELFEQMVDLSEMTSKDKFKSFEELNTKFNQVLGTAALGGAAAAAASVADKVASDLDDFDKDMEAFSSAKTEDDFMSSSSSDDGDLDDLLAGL
Experimental: (§1) In this experiment, the effects of these challenges on Rb69 gp32, T4 gp32 and Aeh1 gp32 were compared.
(§2) An experiment was performed to assess whether gp32 molecules from different species of origin were biochemically distinct from one another. Experimental conditions were as follows: reactions were performed in 50 ul volume; final concentration of probe (SA-Tamra2; 5′-tgttaattgagcaagtgtatagagcattraygabtatgcgtggag-3′ (SEQ ID NO:126), here y=thf, b=BHQ2-dT, r=TAMRA-dT, 3′=Bio-TEG) was 100 nM; Rb69 pg32 was used at final concentration of 80 ng/μl, Nfo was present at 33 ng/μl; after 350 sec either water, dsDNA (550 ng human genomic DNA; i.e. approximately 10× mass of oligonucleotide probe) or ssDNA ([…] oligonucleotide of sequence 5′[…]-3′ (SEQ ID NO:127)) was added; buffer conditions were 20 mM Tris-acetate, 50 mM potassium acetate (pH 7.9), 10 mM Magnesium Acetate, 1 mM Dithiothreitol. Measurements were made in a fluorometer manufactured by Embedded System Engineering (ESE, GmbH) with LED excitation of 520 nm and emission at 585 nm.
(§3) Initially, a concentration of gp32 was established which permitted only a very low cutting activity by Nfo nuclease on the fluorophore/quencher probe. At this concentration the availability of gp32 was limited to a minimal quantity for substantial probe protection, and under these conditions it was possible to assess very sensitively whether gp32 was partitioned away from the probe in competition experiments. After monitoring the slow probe cutting for a while, excess double-stranded DNA or single-stranded oligonucleotides were added to assess whether this affected the distribution of gp32 on the probe. […] Clearly Rb69 and Aeh1 gp32 molecules differentiated and partitioned much more effectively in favour of single-stranded DNA than T4 gp32.

gp32 (T4) = target: T2, gp32 (T4) (Enterobacteria phage T4, UniProt P03695 SEQ:1-301)
T2 sequence: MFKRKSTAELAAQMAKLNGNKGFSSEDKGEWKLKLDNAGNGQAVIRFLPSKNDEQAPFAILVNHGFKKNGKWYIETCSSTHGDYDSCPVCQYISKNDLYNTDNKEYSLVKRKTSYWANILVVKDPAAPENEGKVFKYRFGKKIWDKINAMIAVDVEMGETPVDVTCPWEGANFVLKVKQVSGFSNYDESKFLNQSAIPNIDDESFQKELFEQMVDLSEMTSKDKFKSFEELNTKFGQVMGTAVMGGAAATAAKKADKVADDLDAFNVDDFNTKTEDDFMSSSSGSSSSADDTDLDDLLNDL
Experimental: as §1, §2, §3

gp32 (Aeh1) = target: T3, gp32 (Aeh1) (Aeromonas phage Aeh1)
T3 chain: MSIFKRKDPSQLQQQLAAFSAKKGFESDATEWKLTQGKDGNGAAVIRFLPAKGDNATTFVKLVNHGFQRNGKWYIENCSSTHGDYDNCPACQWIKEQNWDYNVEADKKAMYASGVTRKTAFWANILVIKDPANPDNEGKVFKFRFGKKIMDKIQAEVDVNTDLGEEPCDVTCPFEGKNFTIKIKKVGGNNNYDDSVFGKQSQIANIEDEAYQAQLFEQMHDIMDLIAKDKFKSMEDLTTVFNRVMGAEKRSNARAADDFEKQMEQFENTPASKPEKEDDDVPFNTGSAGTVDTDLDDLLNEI
Experimental: as §1, §2, §3

Measured: binding result

CTGTATTAGAAGTACATGCTGATCAAGTGACA (ssDNA) [competitor oligonucleotide]
binds: all assays above
